These results are taken from patent US20250326840A1 (QURE BIOTECHNOLOGY SHANGHAI, published 2025).

This assay addresses T1, QP002 (biotinylated in the blocking assays, sites not given).
T1 construct: also called SIRPα-FC; Biotin-QP002
The assay can be described thus: blocking ELISA: CD47 FC (QP001) coated, biotin SIRPα-FC (QP002) mixed with the antibody, HRP-streptavidin; blocked ligand: CD47; unit from the x axis Log(Conc.(nM)). For orientation: An ELISA detects its analyte on a solid surface through an enzyme-linked reagent.

T1 sequence (SIRPα-Fc fusion chain, as listed by the source): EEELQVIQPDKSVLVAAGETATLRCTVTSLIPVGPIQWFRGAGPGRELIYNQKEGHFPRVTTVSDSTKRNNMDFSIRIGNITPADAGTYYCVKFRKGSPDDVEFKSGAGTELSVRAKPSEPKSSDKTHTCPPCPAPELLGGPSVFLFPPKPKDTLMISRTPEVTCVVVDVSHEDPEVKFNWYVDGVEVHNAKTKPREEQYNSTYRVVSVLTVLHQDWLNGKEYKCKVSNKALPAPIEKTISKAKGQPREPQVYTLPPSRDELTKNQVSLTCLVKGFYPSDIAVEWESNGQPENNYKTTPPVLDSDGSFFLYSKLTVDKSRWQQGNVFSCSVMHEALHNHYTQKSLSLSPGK

B1: QP32700279 (antibody, human IgG1, kappa, L234A L235A, V domains shown)
VH: QVQLVQSGAEVKKPGASVKVSCKASGYTFTNYWINWVRQAPGQGLEWIAMIDPSDSETHYNQIFKDRATLTTDTSTSTAYMELRSLRSDDTAVYYCAMDYGSLYAMDYWGRGTLVTVSS
VL: DIVLTQSPDSLAVSLGERATINCRASQSVRSSGYNWIFWYQQKPGQPPKLLIYLASNRDSGVPDRFSGSGSGTDFTLTISSLQAEDVAVYYCQHSRELPTFGQGTKLEIKR
notes: also called SIRPα monoclonal antibody CHO71
The IC50 is the concentration at which inhibition is half-maximal. Higher therefore signals a need for much substance. As to B1, the IC50 came to 0.208 nM.
